Test results as given in US20140087995A1 (published 2014).
Numbered stars: 1 amine (or outer) side, 2 acyl side, 3 side chain; on linkers, the order of the positions; unused ones are H or OH. Bridge positions count the residues as written; N and C are the ends. Square brackets hold non-standard residues; d marks the D form. Side chains are listed from the residue outwards. Ends that are not written are not given here. * marks the point of attachment. C20 diacid = O=C(O)CCCCCCCCCCCCCCCCCCC(=O)*; γGlu = O=C(O)[C@H](CCC(=O)[*:2])N[*:1]

T1: human calcitonin receptor (human, UniProt P30988 25-474)
T1 sequence (looked up): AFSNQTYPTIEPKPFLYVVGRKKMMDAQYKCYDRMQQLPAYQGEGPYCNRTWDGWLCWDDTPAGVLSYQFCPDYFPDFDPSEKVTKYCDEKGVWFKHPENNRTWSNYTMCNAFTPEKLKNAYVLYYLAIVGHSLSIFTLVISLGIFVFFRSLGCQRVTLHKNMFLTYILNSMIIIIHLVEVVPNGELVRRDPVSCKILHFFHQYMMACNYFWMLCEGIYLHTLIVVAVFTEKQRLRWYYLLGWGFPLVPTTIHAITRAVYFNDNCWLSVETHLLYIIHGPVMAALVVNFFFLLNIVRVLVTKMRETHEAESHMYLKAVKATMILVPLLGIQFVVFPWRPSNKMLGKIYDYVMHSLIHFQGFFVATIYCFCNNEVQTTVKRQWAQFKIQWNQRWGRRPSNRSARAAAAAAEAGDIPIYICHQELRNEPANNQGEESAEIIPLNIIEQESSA

T2: human amylin receptor (amylin 3(a) receptor: human calcitonin receptor with RAMP-3) (human, UniProt P30988 25-474; O60896 24-148, limits assumed)
T2 sequence (looked up) 1: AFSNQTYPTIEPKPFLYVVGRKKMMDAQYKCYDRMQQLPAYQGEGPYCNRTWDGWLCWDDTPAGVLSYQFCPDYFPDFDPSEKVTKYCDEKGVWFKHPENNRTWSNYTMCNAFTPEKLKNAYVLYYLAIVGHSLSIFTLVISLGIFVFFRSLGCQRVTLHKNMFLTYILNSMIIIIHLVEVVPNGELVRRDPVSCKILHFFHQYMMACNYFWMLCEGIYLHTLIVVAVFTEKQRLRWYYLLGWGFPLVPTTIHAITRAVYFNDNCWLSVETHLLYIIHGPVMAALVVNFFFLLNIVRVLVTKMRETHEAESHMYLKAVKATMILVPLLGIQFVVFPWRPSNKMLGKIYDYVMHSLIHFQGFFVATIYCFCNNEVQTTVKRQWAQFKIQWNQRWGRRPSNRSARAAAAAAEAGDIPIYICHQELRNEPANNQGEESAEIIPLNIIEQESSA
T2 sequence (looked up) 2: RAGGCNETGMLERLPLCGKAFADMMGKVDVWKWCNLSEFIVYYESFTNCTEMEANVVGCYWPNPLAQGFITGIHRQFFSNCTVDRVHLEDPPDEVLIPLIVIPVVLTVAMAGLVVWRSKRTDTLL


Tests used:
[1] = biological target: T1, human calcitonin receptor; assay: cell-based or functional assay
[2] = biological target: T2, human amylin receptor (amylin 3(a) …); assay: cell-based or functional assay

Binder	hCTR funct. EC50 (pM) [1] [pM]	hAmylin-R funct. EC50 (pM) [2] [pM]	Ratio hCT/hAmylin funct. [2]
K([γGlu-γGlu-C20 diacid])CNTATCATQRLAEFLRHSSPNFGAIPSSTNVGPETP-NH2 (disulfide 2-7 (inferred))	102	132	0.8
K([γGlu-γGlu-C20 diacid])CNTATCATQRLAEFLRHSSPNFGAIPSSTNVGPHTY-NH2 (disulfide 2-7 (inferred))	2830	172	
K([γGlu-γGlu-C20 diacid])CNTATCATQRLANFLRHSSPNFGAIPSSTPVGPRTY-NH2 (disulfide 2-7 (inferred))	8660	333	

Other lines, results leading:

hCTR funct. EC50 (pM) [1] [pM]	hAmylin-R funct. EC50 (pM) [2] [pM]	Ratio hCT/hAmylin funct. [2]	Binder
3640	146		K([γGlu-C20 diacid])CNTATCATQRLADFLRHSSPNFGAIPSSTNVGPRTY-NH2 (disulfide 2-7 (inferred))
100000	383		K([γGlu-γGlu-C20 diacid])CNTATCATQRLA[dD]FLRHSSPNFGAIPSSTNVGSRTY-NH2 (disulfide 2-7 (inferred))
5580	425		K([γGlu-C20 diacid])CNTATCATQRLAEFLRHSSPNFGAIPSSTNVGSHTY-NH2 (disulfide 2-7 (inferred))
1450	101		K([γGlu-C20 diacid])CNTATCATQRLAEFLRHSSPNFGAIPSSTNVGPHTY-NH2 (disulfide 2-7 (inferred))
